Here are results for one molecule from publication PMC7618510.

The experiment has as its target T1, HA-Halo-MRAP2 (human), Q96G30.
T1 chain: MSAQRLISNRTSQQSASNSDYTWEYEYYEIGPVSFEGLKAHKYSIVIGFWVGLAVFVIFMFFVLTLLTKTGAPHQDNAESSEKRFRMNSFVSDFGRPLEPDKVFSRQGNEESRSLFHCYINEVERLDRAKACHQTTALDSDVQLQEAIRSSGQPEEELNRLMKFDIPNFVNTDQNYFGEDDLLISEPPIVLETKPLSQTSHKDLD
Briefly: single-molecule pull-down (SiMPull) with photobleaching step counting; one colour: HEK293 cells expressing the HA-Halo-tagged protein alone, labelled at the surface with membrane-impermeable CA-Sulfo646, lysed in 0.5% LMNG/0.05% CHS, immobilised by the HA tag on slides with biotinylated HA antibody, single molecules imaged by TIRF. The following applies: remark: other sources report otherwise.

B1: HA-Halo-MRAP2, Q96G30 1-205 (natural protein)
chain: MSAQRLISNRTSQQSASNSDYTWEYEYYEIGPVSFEGLKAHKYSIVIGFWVGLAVFVIFMFFVLTLLTKTGAPHQDNAESSEKRFRMNSFVSDFGRPLEPDKVFSRQGNEESRSLFHCYINEVERLDRAKACHQTTALDSDVQLQEAIRSSGQPEEELNRLMKFDIPNFVNTDQNYFGEDDLLISEPPIVLETKPLSQTSHKDLD
modifications: here or on the partner: CA-Sulfo646 dye on the Halo tag; CA-Sulfo646 dye on the Halo tag
The molecule B1 returned a percent of molecules with a single bleaching step of 68%, a percent of molecules with three or four bleaching steps of less than 5% and a percent of molecules with two bleaching steps of 28%.
